In patent US20220174981A1, “PROLINE TOLERANT TRIPEPTIDYL PEPTIDASES AND USES THEREOF” (DuPont Nutrition Biosciences APS, priority 2014, published 2022):
Where “and” joins values, the source holds several entries; their conditions need not be identical. Equal entries are not always repeated.

B1: TRI071: Proline tolerant tripeptidyl peptidase TRI071 (SEQ ID No. 12 or SEQ ID No. 39) (protein, listed as Fusarium oxysporum)
chain 1: KSFSHHAEAPQGWQVQKTAKVASNTQHVFSLALTMQNVDQLESKLLDLSSPDSANYGNWLSHDELTSTFSPSKEAVASVTKWLKSKGIKHYKVNGAFIDFAADVEKANTLLGGDYQYYTKDGQTKLRTLSYSIPDDVAGHVQFVDPSTNFGGTVAFNPVPHPSRTLQERKVSPSKSTVDASCQTSITPSCLKQMYNIGDYTPDAKSGSEIGFSSFLGQAAIYSDVFKFEELFGIPKQNYTTILINNGTDDQNTAHGNFGEANLDAENIVGIAHPLPFKQYITGGSPPFVPNIDQPTEKDNQNEPYVPFFRYLLGQKDLPAVISTSYGDEEDSVPREYATLTCNMIGLLGLRGISVIFSSGDIGVGSGCLAPDYKTVEFNAIFPATCPYLTSVGGTVDVTPEIAWEGSSGGFSKYFPRPSYQDKAIKKYMKTVSKETKKYYGPYTNWEGRGFPDVAGHSVAPDYEVIYNGKQARSGGTSAAAPVWAAIVGLLNDARFKAGKKSLGWLNPLIYKHGPKVLTDITGGYAIGCDGNNTQSGKPEPAGSGLVPGARWNATAGWDPTTGYGTPNFQKLKDLVLSL
chain 2: CQTSITPSCLKQMYNIGDYTPDAKSGSEIGFSSFLGQAAIYSDVFKFEELFGIPKQNYTTILINNGTDDQNTAHGNFGEANLDAENIVGIAHPLPFKQYITGGSPPFVPNIDQPTEKDNQNEPYVPFFRYLLGQKDLPAVISTSYGDEEDSVPREYATLTCNMIGLLGLRGISVIFSSGDIGVGSGCLAPDYKTVEFNAIFPATCPYLTSVGGTVDVTPEIAWEGSSGGFSKYFPRPSYQDKAIKKYMKTVSKETKKYYGPYTNWEGRGFPDVAGHSVAPDYEVIYNGKQARSGGTSAAAPVWAAIVGLLNDARFKAGKKSLGWLNPLIYKHGPKVLTDITGGYAIGCDGNNTQSGKPEPAGSGLVPGARWNATAGWDPTTGYGTPNFQKLKDLVLS

Tests used:
[1] = molecular target: proline tolerant tripeptidyl peptidase (TRI083); assay: Product inhibition of TRI083 (Ala-Ala-Ala-pNA substrate); type: biochemical, T. reesei; settings: treated as competitive inhibitors
Description: For proline tolerant tripeptidyl peptidase the chromogenic peptide H-Ala-Ala-Ala-pNA was used. The assay was conducted as follows, 27.5 μL of appropriately diluted enzyme was added to 200 μl McIlvaine buffer (20 mM, pH 4.0). After incubation at 50° C. for 5 min, 12.5 μL of the chromogenic peptide solution (5 mg/mL dissolved in dimethyl sulfoxide (DMSO); Sigma-Aldrich, Denmark) were added to the reaction mixture. The reaction was terminated by adding 50 μL of 0.5 M trichloroacetic acid (TCA; Sigma-Aldrich, Denmark). After centrifugation (15,000×g, 5 min), 240 μL of the solution were transferred to a microtiter plate (MTP; Kisker-biotech, Germany) and the absorption was measured in an MTP reader (Molecular Devices, Denmark) at 405 nm. One katal of proteolytic activity was defined as the amount of enzyme required to release 1 mol of p-nitroaniline per second.
Inhibition experiments were conducted with TRI083 and Ala-Ala-Ala-pNA ([…]) as substrate in the assay described in Example 8. The assay was run without inhibitor, with 3.6 mM tripeptide (H-Ala-Ala-Ala-OH; Bachem, Switzerland), 18 mM dipeptide (H-Ala-Ala-OH; Bachem, Switzerland) or 18 mM alanine (Sigma-Aldrich, Denmark). […]
Subsequently, TRI083 was analyzed for product inhibition without inhibitor, with 1 mg/mL H-Ala-Ala-Ala-OH as well with the PepN pre-hydrolyzed H-Ala-Ala-Ala-OH (1 mg/mL).

H-Ala-Ala-Phe-pNA = assay: Low pH stability of tripeptidyl peptidases (pH 2.5, 40° C., 60 min), activity on H-Ala-Ala-Phe-pNA; type: biochemical; settings: for OD410nm (Final): after pH 2.5, 40° C., 60 min; for OD410nm (Initial): without incubation at 40° C. for 60 min
Description: As requirements for utilization of the enzymes in feed for monogastric animals, the enzymes should be active at lower pH. For this reason the number of tripeptidyl peptidases has been tested with the reaction on synthetic substrate AAF (H-Ala-Ala-Phe-pNA. BACHEM, L-1095), at pH 2.5.
The tripeptide substrate AAF was prepared at 2.5 mg/ml in DMSO. Tripeptidyl peptidases were used as broth. The reaction mixture containing 2.5 μl enzyme and 90 μL glycine acetic acid-Tris buffer (each buffer components at 50 mM, pH 2.5) was prepared in 96 well incubation plates.
The incubation plate was mixed and incubated at 40° C. for 60 min. Then 50 μl 0.2M Mes-NaOH pH6.0 was added to each well, mixed at 600 rpm for 2 min. After that, 5 ul of the incubation mixture were taken to 96 well assay plate already filled with 85 μl 0.1M acetic acid buffer, pH4.0 and 5 μl 2.5 mg/ml AAF substrate solution.
The reaction mixture was stirred at 600 rpm for 2 min and read directly in a microplate reader (Molecular Devices, Denmark) at 410 nm at 30° C. every 30 second for 15 min.
To measure initial enzyme activity, similar procedure was performed except the step of enzyme incubation at 40° C. for 60 min.

[2] = system: whey protein isolate (WPI); assay: 15% WPI hydrolysis with endopeptidase and proline tolerant tripeptidyl peptidase homologues; type: biochemical; settings: after 7 h of hydrolysis, compared to the reference (endopeptidase); FIG. 14
Description: For WPI hydrolysis, Lacprodan-9224 (Arla Food Ingredients, Denmark) was employed, a 15% (w/w) WPI suspension was prepared in H2Od and adjusted to pH 4.5 with acetic acid (Sigma-Aldrich, Denmark). To prevent microbial growth, 0.0285% (w/w) NaN3 was added. Subsequently, 1% (w/w) Alphalase® FP2 was added and a volume of 200 μl of the WPI suspension was transferred into each of the 96 wells of a microtiter plate (MTP; VWR, Denmark). Following this, 5 μl of each proline tolerant tripeptidyl peptidase homologue containing either 0 or 4375nkatH-Ala-Ala-Ala-pNA/mL were added to the particular wells of the MTP. Then, the MTP was sealed and placed in an incubator at 40° C. (iEMS incubator/shaker HT, Thermo Scientific, Denmark).
[…] Unhydrolyzed, precipitated WPI was removed by filtration (0.22 μm; Corning 3504 filter plate, Corning Incorporated, USA). The filtered WPI hydrolysate was employed for o-phthaldehyde (OPA) derivatization (Nielsen, Petersen et al. 2001). The OPA derivatization was conducted according to Nielsen et al., (2001) with minor modifications. A sample volume of 25 μl was transferred to a well and 175 μl of OPA-reagent, dissolved in trisodium phosphate-dodecahydrate, was added subsequently. The measured absorptions at 340 nm in a MTP reader (VersaMax, Molecular Devices, Denmark) were transformed into serine equivalents employing a serine calibration curve (0-2 mM).

[3] = listed as TRI071 (pool1) 2% glu/soph
[4] = listed as TRI071 (pool1) 4% glu/soph

Molecule | Ki [1] | OD410nm (Final) (H-Ala-Ala-Phe-pNA; [3]) | OD410nm (Final) (H-Ala-Ala-Phe-pNA; [4]) | OD410nm (Initial) (H-Ala-Ala-Phe-pNA; [3]) | OD410nm (Initial) (H-Ala-Ala-Phe-pNA; [4]) | relative increase of SE [2]
C[C@H](N)C(=O)O [Alanine, alanine] | no inhibition at all | – | – | – | – | –
B1 | – | 0.589 and 0.672 | 0.453 and 0.6 | 0.757 and 0.815 | 0.466 and 0.67 | about 64%
